Laboratory results from the supplement of paper PMC11246515.
± gives the standard deviation of the averaged measurements.

Experiment: total protein half-life in vivo (active degradation + dilution); higher = more stable protein
[1] = wild type E. coli NCM3722, growth: C-lim chemostat, doubling time 3 h
[2] = wild type E. coli NCM3722, growth: C-lim chemostat, doubling time 6 h
[3] = wild type E. coli NCM3722, growth: C-lim chemostat, doubling time 12 h
[4] = E. coli NCM3722 delta-clpP delta-lon delta-hslV, growth: N-lim chemostat, doubling time 6 h
[5] = E. coli NCM3722 delta-smpB, growth: N-lim chemostat, doubling time 6 h
[6] = wild type E. coli NCM3722, growth: N-lim chemostat, doubling time 6 h
[7] = wild type E. coli NCM3722, growth: N-lim chemostat, doubling time 12 h
[8] = E. coli NCM3722 delta-clpP, growth: N-lim chemostat, doubling time 6 h
[9] = E. coli NCM3722 delta-hslV, growth: N-lim chemostat, doubling time 6 h
[10] = E. coli NCM3722 delta-lon, growth: N-lim chemostat, doubling time 6 h
[11] = wild type E. coli NCM3722, growth: P-lim chemostat, doubling time 6 h
[12] = wild type E. coli NCM3722, growth: P-lim chemostat, doubling time 12 h

| Sequence | total protein half-life in vivo [1] [h] | total protein half-life in vivo [2] [h] | total protein half-life in vivo [3] [h] | total protein half-life in vivo [4] [h] | total protein half-life in vivo [5] [h] | total protein half-life in vivo [6] [h] | total protein half-life in vivo [7] [h] | total protein half-life in vivo [8] [h] | total protein half-life in vivo [9] [h] | total protein half-life in vivo [10] [h] | total protein half-life in vivo [11] [h] | total protein half-life in vivo [12] [h] |
| --- | --- | --- | --- | --- | --- | --- | --- | --- | --- | --- | --- | --- |
| MTDQAEKKHSAFWGVMVIAGTVIGGGMFALPVDLAGAWFFWGAFILIIAWFSMLHSGLLLLEANLNYPVGSSFNTITKDLIGNTWNIISGITVAFVLYILTYAYISANGAIISETISMNLGYHANPRIVGICTAIFVASVLWLSSLAASRITSLFLGLKIISFVIVFGSFFFQVDYSILRDATSSTAGTSYFPYIFMALPVCLASFGFHGNIPSLIICYGKRKDKLIKSVVFGSLLALVIYLFWLYCTMGNIPRESFKAIISSGGNVDSLVKSFLGTKQHGIIEFCLLVFSNLAVASSFFGVTLGLFDYLADLFKIDNSHGGRFKTVLLTFLPPALLYLIFPNGFIYGIGGAGLCATIWAVIIPAVLAIKARKKFPNQMFTVWGGNLIPAIVILFGITVILCWFGNVFNVLPKFG | 3.24 ± 0.27 | 5.07 ± 1.3 | 11 | – | – | – | – | – | – | – | – | – |
| MSQAKSNKMGVVQLTILTMVNMMGSGIIMLPTKLAEVGTISIISWLVTAVGSMALAWAFAKCGMFSRKSGGMGGYAEYAFGKSGNFMANYTYGVSLLIANVAIAISAVGYGTELLGASLSPVQIGLATIGVLWICTVANFGGARITGQISSITVWGVIIPVVGLCIIGWFWFSPTLYVDSWNPHHAPFFSAVGSSIAMTLWAFLGLESACANTDVVENPERNVPIAVLGGTLGAAVIYIVSTNVIAGIVPNMELANSTAPFGLAFAQMFTPEVGKVIMALMVMSCCGSLLGWQFTIAQVFKSSSDEGYFPKIFSRVTKVDAPVQGMLTIVIIQSGLALMTISPSLNSQFNVLVNLAVVTNIIPYILSMAALVIIQKVANVPPSKAKVANFVAFVGAMYSFYALYSSGEEAMLYGSIVTFLGWTLYGLVSPRFELKNKHG [P0AAF1] | – | > 8 | > 16 | 6.73 ± 1.1 | 5.34 ± 1 | 4.53 | > 16 | – | – | – | – | – |
| MKIIILGAGQVGGTLAENLVGENNDITVVDTNGERLRTLQDKFDLRVVQGHGSHPRVLREAGADDADMLVAVTSSDETNMVACQVAYSLFNTPNRIARIRSPDYVRDADKLFHSDAVPIDHLIAPEQLVIDNIYRLIEYPGALQVVNFAEGKVSLAVVKAYYGGPLIGNALSTMREHMPHIDTRVAAIFRHDRPIRPQGSTIVEAGDEVFFIAASQHIRAVMSELQRLEKPYKRIMLVGGGNIGAGLARRLEKDYSVKLIERNQQRAAELAEKLQNTIVFFGDASDQELLAEEHIDQVDLFIAVTNDDEANIMSAMLAKRMGAKKVMVLIQRRAYVDLVQGSVIDIAISPQQATISALLSHVRKADIVGVSSLRRGVAEAIEAVAHGDESTSRVVGRVIDEIKLPPGTIIGAVVRGNDVMIANDNLRIEQGDHVIMFLTDKKFITDVERLFQPSPFFL [P0AGI8] | 3.056 ± 0.029 | 6.56 ± 0.57 | 11.5 ± 0.3 | 6.84 ± 1.2 | 5.41 ± 0.16 | 5.839 ± 0.044 | 12 ± 0.56 | 4.97 ± 0.52 | 5.96 ± 0.17 | 5.31 ± 0.37 | 6.38 ± 0.11 | 13.2 ± 0.66 |
| MKTTAKLSFMMFVEWFIWGAWFVPLWLWLSKSGFSAGEIGWSYACTAIAAILSPILVGSITDRFFSAQKVLAVLMFAGALLMYFAAQQTTFAGFFPLLLAYSLTYMPTIALTNSIAFANVPDVERDFPRIRVMGTIGWIASGLACGFLPQILGYADISPTNIPLLITAGSSALLGVFAFFLPDTPPKSTGKMDIKVMLGLDALILLRDKNFLVFFFCSFLFAMPLAFYYIFANGYLTEVGMKNATGWMTLGQFSEIFFMLALPFFTKRFGIKKVLLLGLVTAAIRYGFFIYGSADEYFTYALLFLGILLHGVSYDFYYVTAYIYVDKKAPVHMRTAAQGLITLCCQGFGSLLGYRLGGVMMEKMFAYQEPVNGLTFNWSGMWTFGAVMIAIIAVLFMIFFRESDNEITAIKVDDRDIALTQGEVK | – | 4.97 ± 0.24 | 9.17 | – | – | – | – | – | – | – | – | – |
| MNNNLQRDAIAAAIDVLNEERVIAYPTEAVFGVGCDPDSETAVMRLLELKQRPVDKGLILIAANYEQLKPYIDDTMLTDVQRETIFSRWPGPVTFVFPAPATTPRWLTGRFDSLAVRVTDHPLVVALCQAYGKPLVSTSANLSGLPPCRTVDEVRAQFGAAFPVVPGETGGRLNPSEIRDALTGELFRQG | – | 5.61 ± 0.47 | 9.17 ± 0.24 | 4.72 ± 0.33 | 3.89 ± 0.05 | 4.08 ± 0.38 | 5.63 ± 1.6 | 4.4 ± 0.6 | 4.12 ± 0.43 | 5.29 ± 0.27 | 5.25 ± 0.24 | 11 ± 1.6 |
| MNNIAPQSPVMRRLTLQDNPAIARVIRQVSAEYGLTADKGYTVADPNLDELYQVYSQPGHAYWVVEYEGEVVGGGGIAPLTGSESDICELQKMYFLPAIRGKGLAKKLALMAMEQAREMGFKRCYLETTAFLKEAIALYEHLGFEHIDYALGCTGHVDCEVRMLREL | 2.95 ± 0.76 | 5.11 ± 0.59 | 6.43 ± 0.74 | 4.53 ± 0.45 | 3.89 ± 0.23 | 4.37 ± 0.26 | 7.32 ± 0.57 | 3.93 ± 0.64 | 3.54 ± 0.28 | 3.77 ± 0.61 | 5 ± 0.34 | 10.6 ± 2.3 |
